The values that follow are results of earlier work, collected in paper PMC3642679.

This series has as its target sliding clamp beta (Escherichia coli) (UniProt P0A988).
Sequence of UniProt P0A988 (P0A988 whole entry): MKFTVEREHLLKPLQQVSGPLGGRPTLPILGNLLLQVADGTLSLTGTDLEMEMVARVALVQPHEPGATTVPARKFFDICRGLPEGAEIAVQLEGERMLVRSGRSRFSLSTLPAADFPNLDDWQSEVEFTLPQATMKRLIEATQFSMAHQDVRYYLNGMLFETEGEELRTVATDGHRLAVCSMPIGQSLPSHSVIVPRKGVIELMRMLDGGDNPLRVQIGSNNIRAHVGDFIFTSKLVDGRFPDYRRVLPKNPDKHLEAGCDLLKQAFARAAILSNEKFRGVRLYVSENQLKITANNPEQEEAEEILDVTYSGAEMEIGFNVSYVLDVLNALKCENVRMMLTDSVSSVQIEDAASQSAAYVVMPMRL

Take Pol III alpha (from UniProt P10443): the Kd was 1000 nM.

One may read the Kd as the free concentration of one partner at which half of the binding sites on the other are occupied at equilibrium, for simple one-to-one binding.
